From patent publication US20090180995A1, “NOVEL ANTICOAGULANT POLYPEPTIDES AND COMPLEX” (National University of Singapore, priority 2005, published 2009)
Values joined by “and” are separate entries in the source; they are usually repeats but may differ in a detail not shown here. Equal entries are not always repeated. “Also recorded” adds a separate entry of the source.

What was measured:
Plasmin = Plasmin (Homo sapiens, UniProt P00747); test: Serine protease specificity, plasmin; type: biochemical; conditions: plasmin (2 nM)
Plasmin, sequence (P00747 581-810 limits assumed, species assumed): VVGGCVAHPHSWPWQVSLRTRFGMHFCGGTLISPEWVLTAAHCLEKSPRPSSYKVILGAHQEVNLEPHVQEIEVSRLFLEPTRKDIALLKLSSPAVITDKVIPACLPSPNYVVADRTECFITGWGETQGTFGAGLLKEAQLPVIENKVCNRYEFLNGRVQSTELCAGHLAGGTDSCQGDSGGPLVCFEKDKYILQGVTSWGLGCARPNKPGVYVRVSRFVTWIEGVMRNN
Plasmin, sequence (P00747 97-580 limits assumed, species assumed): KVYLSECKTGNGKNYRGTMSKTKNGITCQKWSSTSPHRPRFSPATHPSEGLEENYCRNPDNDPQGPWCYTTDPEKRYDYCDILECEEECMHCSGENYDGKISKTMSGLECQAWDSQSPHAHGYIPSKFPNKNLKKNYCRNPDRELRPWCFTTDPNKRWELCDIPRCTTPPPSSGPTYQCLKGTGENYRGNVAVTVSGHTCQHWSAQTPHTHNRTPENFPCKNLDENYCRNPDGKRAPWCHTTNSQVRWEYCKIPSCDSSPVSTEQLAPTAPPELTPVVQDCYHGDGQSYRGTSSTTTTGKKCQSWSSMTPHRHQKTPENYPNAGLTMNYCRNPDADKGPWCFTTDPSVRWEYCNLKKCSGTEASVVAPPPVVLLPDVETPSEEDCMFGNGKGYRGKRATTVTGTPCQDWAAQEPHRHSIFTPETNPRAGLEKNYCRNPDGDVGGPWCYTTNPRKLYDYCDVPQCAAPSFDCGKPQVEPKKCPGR
Experimental: (§1) Serine protease specificity—The selectivity profile of anticoagulant proteins and their complex was examined against 12 serine proteases—procoagulant serine proteases (FIXa, FXa, FXIa, FXIIa, plasma kallikrein and thrombin), anticoagulant serine protease (APC), fibrinolytic serine proteases (urokinase, t-PA and plasmin) and classical serine proteases (trypsin and chymotrypsin). Various concentrations of purified hemextin A/hemextin B and reconstituted hemextin AB complex were preincubated with each of the enzymes (Table 1) for a period of five minutes at a temperature of 37° C., followed by the addition of appropriate chromogenic substrate.
(§2) For studies with FXIa, kallikrein and urokinase, the appropriate substrates were determined prior to their screening against the inhibitors. For FXIa, the Vmax for the amidolytic activity corresponding to the chromogenic substrates S-2266, S-2302 and S-2366 was determined. S-2302 was the substrate with the highest Vmax and thus was used in the screening studies. Similar studies with kallikrein and urokinase were carried out with substrates S-2266, S-2302 and S-2288 for kallikrein and S-2444 and S-2484 for urokinase. In a total volume of 200 μl in the individual wells of the microtiter plate, final concentrations of FVIIa (300 nM)/S-2288, FVIIa-sTF (30 nM)/S-2288, FXa (0.75 nM)/S-2765, α-thrombin (0.66 nM)/S-2238, plasmin (2 nM)/S-2366, FIXa (3 μM)/spectrozyme®fIXa, FXIa (0.34 nM)/S-2366, FXIIa (0.4 nM)/S-2302, recombinant tissue plasminogen activator (80 nM)/S-2288, activated protein C (0.34 nM)/S-2366, urokinase/S-2444, plasma kallikrein (0.4 nM)/S-2302, trypsin (2.17 nM)/S-2222 and chymotrypsin (0.4 nM)/S-2586 were measured. The kinetic rate of substrate hydrolysis (mOD/min) was measured over 5 min.

plasma = test: Prothrombin time; type: biochemical, human; conditions: for anticoagulant activity, prothrombin time: human plasma, 37° C.; for anticoagulant activity in buffers of high ionic strength: 50 mM Tris-HCl (pH 7.4) with NaCl 35 mM to 150 mM
Experimental: Briefly, prothrombin times may be measured according to the method of Quick (see Quick A J. (1935) J. Biol. Chem. 109, 73-74). 100 μl of 50 mM of Tris-HCl buffer (pH 7.4), 100 μl of plasma and 50 μL of the protein under investigation are to be incubated for 2 min at 37° C. Clotting is initiated by the addition of 150 μL of thromboplastin with calcium reagent.
Anticoagulant activity—The anticoagulant activities of H. haemachatus venom and its fractions was determined by four coagulation tests using a BBL fibrometer: • 1. Recalcification time: The recalcification times were determined according to the method of Langdell et al. (25). 50 mM Tris-HCl buffer (pH 7.4) (100 μl), plasma (100 μl) and various concentrations of venom or its fraction (50 μl) were preincubated for 2 min at 37° C. Clotting was initiated by the addition of 50 μl of 50 mM CaCl2. • 2. Prothrombin time: The prothrombin times were measured according to the method of Quick (26). 100 μl of 50 mM Tris-HCl buffer (pH 7.4), 100 μl of plasma and 50 μl of venom or its fractions were preincubated for 2 min at 37° C. Clotting was initiated by the addition of thromboplastin with calcium reagent (150 μl) which can be purchased from Sigma (St. Louis, Mo., USA). • For studying the role of electrostatic interactions, the anticoagulant activity of a specific concentration of hemextin A (4.4 μM), hemextin B (4.4 μM) and hemextin AB complex (0.11 μM) was monitored in 50 mM Tris-HCl (pH 7.4) containing various concentrations of NaCl (35 mM to 150 mM). • For studying the role of hydrophobic interactions, the anticoagulant activity of a specific concentration of hemextin A (4.4 μM), hemextin B (4.4 μM) and hemextin AB complex (0.11 μM) was monitored in 50 mM Tris-HCl (pH 7.4) containing various concentrations of glycerol (125 mM to 250 mM). • 2. Stypven time: Stypven time measurements were determined according to the method of Hougie (27). Plasma (100 μl), 50 mM Tris-HCl buffer (pH 7.4) (100 μl) and RVV (0.01 μg in 100 μl) and individual proteins or the reconstituted complex (50 μl) were preincubated for 2 min at 37° C. Clotting was initiated by the addition of 50 mM CaCl2 (50 μl). • 3. Thrombin time: Thrombin time was determined according to the method of Jim (28). Individual proteins or the reconstituted complex were incubated with 100 μl of plasma and 100 μl of 50 mM Tris-HCl buffer (pH 7.4) for 2 min at 37° C. in a total volume 250 μl. Clotting was initiated by the addition of standard thrombin reagent (0.01 NIH units in 50 μl).

[1] = Hydrodynamic diameter by DLS; type: physicochemical; conditions: for hydrodynamic diameter (DLS): 50 mM Tris-HCl buffer (pH 7.4), 25° C.; for hydrodynamic diameter (DLS) in buffers of high ionic strength: 75 mM and 150 mM NaCl
Experimental: (B) Dynamic Light Scattering (DLS)—Complex formation studies with DLS were carried out at 25° C. using a BI200SM instrument (Brookhaven Instruments Corporation, Holstvile, N.Y., USA). A vertically polarized argon ion laser (514.2 nm, 75 mW; NEC model GLG-3112) was used as the light source. Sample solutions of hemextin A (4 mM), hemextin B (4.1 mM) and hemextin AB complex (2.3 mM) were prepared immediately prior to the experiment. The hydrodynamic diameter for the hemextin AB complex and the individual hemextins were recorded at 25° C. in solutions of different ionic strengths and at different glycerol concentrations. The ionic strengths were varied by the addition of NaCl. From the measured translational diffusion coefficient (DT), the hydrodynamic radius (RH) can be calculated using the Stokes-Einstein relation: […]
where kB is the Boltzmann constant, T is the temperature in Kelvin and η being the viscosity of the solvent. The intensity-intensity time correlation functions were obtained with a BI-9000 digital correlator equipped with the instrument. The particle size and size distribution were obtained by analyzing the field correlation function |g^(1)(τ)| using constrained regularized CONTIN method (73).

Thrombin = target: T1, Thrombin (Homo sapiens, UniProt P00734); test: Serine protease specificity, thrombin; type: biochemical; conditions: α-thrombin (0.66 nM)/S-2238
T1 construct: FXa performs a proteolytic cleavage of prothrombin to thrombin
Experimental: as §1, §2

FXa = FXa (Homo sapiens, UniProt P00742); test: Serine protease specificity, FXa; type: biochemical; conditions: FXa (0.75 nM)/S-2765
FXa, sequence (P00742 41-179 limits assumed): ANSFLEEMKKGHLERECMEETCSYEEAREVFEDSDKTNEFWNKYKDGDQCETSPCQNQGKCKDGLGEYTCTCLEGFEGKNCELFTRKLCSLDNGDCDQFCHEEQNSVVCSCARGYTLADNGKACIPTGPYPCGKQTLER
FXa, sequence (P00742 235-488 limits assumed): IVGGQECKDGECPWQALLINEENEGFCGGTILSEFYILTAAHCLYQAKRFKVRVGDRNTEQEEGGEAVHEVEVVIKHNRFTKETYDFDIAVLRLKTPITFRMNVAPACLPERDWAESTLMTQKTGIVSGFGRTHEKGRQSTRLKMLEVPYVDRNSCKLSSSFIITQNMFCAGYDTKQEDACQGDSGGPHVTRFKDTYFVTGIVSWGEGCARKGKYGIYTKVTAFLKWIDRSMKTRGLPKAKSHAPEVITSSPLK
Experimental: as §1, §2

APC = APC (Homo sapiens, UniProt P04070); test: Serine protease specificity, APC; type: biochemical; conditions: activated protein C (0.34 nM)/S-2366
APC, sequence (P04070 43-197 limits assumed): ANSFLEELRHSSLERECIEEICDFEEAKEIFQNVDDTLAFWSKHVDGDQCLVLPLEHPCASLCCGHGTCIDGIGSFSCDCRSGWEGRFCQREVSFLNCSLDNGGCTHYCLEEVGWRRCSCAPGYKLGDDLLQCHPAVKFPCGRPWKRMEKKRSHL
APC, sequence (P04070 212-461 limits assumed): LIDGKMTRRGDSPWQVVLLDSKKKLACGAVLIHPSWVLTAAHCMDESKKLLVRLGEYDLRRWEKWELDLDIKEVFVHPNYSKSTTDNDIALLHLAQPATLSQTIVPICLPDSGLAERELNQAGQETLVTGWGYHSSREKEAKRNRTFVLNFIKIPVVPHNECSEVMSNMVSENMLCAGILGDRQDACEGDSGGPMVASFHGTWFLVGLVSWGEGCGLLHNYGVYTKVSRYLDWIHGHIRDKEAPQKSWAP
Experimental: as §1, §2

| Molecule | Observed Effect, plasmin amidolytic activity (Plasmin) | anticoagulant activity of hemextin A with increasing hemextin B concentrations (plasma; hemextin A constant at 4.4 μM) | anticoagulant activity, prothrombin time (plasma) | hydrodynamic diameter (DLS) [1] | hydrodynamic diameter (DLS) in buffers of high ionic strength [1] | Observed Effect, thrombin amidolytic activity (Thrombin) | Observed Effect, FXa amidolytic activity (FXa) | Observed Effect, APC amidolytic activity (APC) | anticoagulant activity in buffers of high ionic strength (plasma) | anticoagulant activity in buffers containing glycerol (plasma; 50 mM Tris-HCl (pH 7.4) with glycerol 125 mM to 250 mM) | anticoagulant activity at 125 mM glycerol (plasma; 125 mM glycerol) | anticoagulant activity at 250 mM glycerol (plasma; 250 mM glycerol) | anticoagulant activity, prothrombin time (plasma; listed as equimolar mixture of hemextin A and B) |
| --- | --- | --- | --- | --- | --- | --- | --- | --- | --- | --- | --- | --- | --- |
| hemextin B (protein) LKCKNKVVPFLKCKNKVVPFLCYKMTLKKVPKIPIKRGCTDACPKSSLLVNVMCCKTDKCN | no inhibitory activity | increases with the increasing concentrations of hemextin B until the ratio reaches 1:1 | did not show any significant effect on clotting time; also recorded: did not prolong clotting times; also recorded: no anticoagulant activity | 9.9 nm | No change | no inhibitory activity | no inhibitory activity | no inhibitory activity | – | – | – | – | – |
| hemextin A (protein) LKCKNKLVPFLSKTCPEGKNLCYKMTMLKMPKIPIKRGCTDACPKSSLLVKVVCCNKDKCN | no inhibitory activity | – | mild anticoagulant activity | 10.3 nm and 10.4 nm | 11.57 nm | no inhibitory activity | no inhibitory activity | no inhibitory activity | did not affect the anticoagulant activity | – | – | – | – |
| hemextin AB complex: synergistic 1:1 tetrameric complex of hemextin A and hemextin B, reconstituted from equimolar proteins (protein) chain 1: LKCKNKLVPFLSKTCPEGKNLCYKMTMLKMPKIPIKRGCTDACPKSSLLVKVVCCNKDKCN chain 2: LKCKNKVVPFLKCKNKVVPFLCYKMTLKKVPKIPIKRGCTDACPKSSLLVNVMCCKTDKCN | no inhibitory activity | – | potent anticoagulant activity | 16.8 nm | – | no inhibitory activity | no inhibitory activity | no inhibitory activity | decreased with the increase in ionic strength up to 100 mM NaCl | decreased with the increase in glycerol concentration | no decrease in the anticoagulant activity | higher than that of anticoagulant effect of hemextin A alone | more potent anticoagulant activity |
